US6858775B1, “Method for generating split, non-transferable genes that are able to express an active protein product” (New England Biolabs, Inc., priority 1999, dated 2005)

Assays:
E. coli ER2744 [1] = experiment: Plate assay: rescue of E. coli ER2744 growth on valine or valine plus SM M9 plates; type: cell-based
Source text: E. coli ER2744 strain was employed as an in vivo model system for assessing the activity of the herbicide resistant E. coli ALSII gene, genetically modified by a linker insertion between Q327 and C328. E. coli ER2744 is derived from wild type E. coli K12 that contains the active ALSI and ALSIII enzymes, but not an active ALSII. ALSI and ALSIII are two isoforms of ALS genes in E. coli, which are crucial for the synthesis of valine, isoleucine and leucine (LaRossa and Schloss, J. Biol. Chem. 259:8753-8757 (1984)). Their activity is sensitive to the valine feedback inhibition. Therefore, by saturating the growth medium with 100 μg/ml valine (Sigma, St. Louis, Mo.), ALSI and III will be inhibited and the cells will stop growing. By introducing a recombinant herbicide resistant ALSII (ALSIIm) into E. coli cells, their growth will be rescued since ALSII is resistant to valine inhibition.
Plate assays were conducted to examine the capability of ALSIIm-14 to rescue E. coli ER2744 from valine (100 μg/ml) or valine plus herbicide SM (50 μg/ml, Supelco Park, Bellefonte, Pa.) saturated M9 minimum medium plate (Sambrook et al., (1989)). The M9 medium contains 2 μg/ml Thiamin, 2 mM MgSO4, 0.1 mM CaCl2, 0.2% glucose, 50 μg/ml of kanamycin, 100 μg/ml of ampicillin and 0.3 mM IPTG. For the plating assay, 100 μl of 25 mg/ml Valine with or without 50 μl of 25 μg/ml Sulfometuron methyl (SM) was spread on M9 selection plate. To assay bacterial growth, overnight cultures were streaked on M9 plates with or without valine and/or SM. The plates were incubated at various temperatures (as indicated in FIG. 7) for 48 to 72 hrs before the pictures were taken. On the plate supplemented with valine, cells expressing either ALSII, ALSIIm or ALSIIm-14 were able to grow (FIG. 7-a). However, when both valine and SM was applied, only strains expressing herbicide-resistant ALSIIm or ALSIIm-14 were able to grow (FIG. 7-b).
The next step was to determine whether the spliced product, as the result of trans-splicing of the ALSIIm (ALSIIm(N)—INn and ALSIIm(C)—INc) fusion proteins, would render E. coli ER2744 resistant to valine and SM. The first experiment was to test the effect of co-expression of ALSIIm(N)—INn and ALSIIm(C)—INc fusion proteins on cell growth in valine saturated M9 minimum medium. In a plating assay (see Section 4.), all transformed cells grew well on M9 medium in the absence of valine (FIG. 9A-a). […] (FIG. 9A-b, 9A-c) in the presence of valine. […] (FIG. 9A-c) or lower temperatures (data not shown) from a valine plate.

E. coli ER2744 [2] = experiment: Quantitative liquid culture assay (OD600) of E. coli ER2744 in valine / SM M9 medium; type: cell-based; conditions: 30° C.
Description: A quantitative liquid culture assay was performed to verify the results obtained from the plating assay. The liquid assay was performed as follows. A single colony was used to inoculate LB medium supplemented with kanamycin and ampicillin at 37° C. for 4 hours. Expression was induced by 0.3 mM IPTG and cell cultures were shifted to 30° C. for another 2 hrs. Then, 200 μL of equivalent OD600 8.0 was spun down, washed one time with M9 medium and resuspended in 200 μl M9 medium. 40 μl was aliquoted into 2 ml of appropriate culture medium and grown for 24-72 hours before its OD600 was measured. The concentration for valine is 100 μg/ml and for SM is 50 μg/ml. At 30° C., all transformed cells grew equally well in M9 minimum medium (FIG. 9B). […] To further compare the growth kinetics for trans-splicing mediated cell growth to wild type ALSII mediated cell growth, a time course study was performed (FIG. 9C).

Row | Molecule | cell growth on M9 plate in the presence of valine at both 30° C. and 37° C. (E. coli ER2744 [1]; 100 μg/ml valine) | cell growth in valine saturated M9 liquid medium (E. coli ER2744 [2]; 100 μg/ml valine) | cell growth on M9 plate with valine and herbicide SM (E. coli ER2744 [1]; 100 μg/ml valine and 50 μg/ml SM, 30° C., 0.3 mM IPTG) | cell growth on M9 plate supplemented with valine (E. coli ER2744 [1]; 100 μg/ml valine, 30° C., 0.3 mM IPTG) | cell growth in valine M9 liquid medium containing SM (E. coli ER2744 [2]; 100 μg/ml valine, 50 μg/ml SM) | growth rate, time course study (E. coli ER2744 [2]; M9 medium with 100 μg/ml valine)
1 | ALSIIm(N)—INn: fusion of ALSIIm N-terminal 327 residues and Ssp DnaE intein N-terminal 123 residues | did not grow | did not rescue cell growth | – | – | – | –
2 | ALSII: wild type E. coli acetolactate synthase II expressed from plasmid pALSII (protein) MNGAQWVVHALRAQGVNTVFGYPGGAIMPVYDALYDGGVEHLLCRHEQGAAMAAIGYARATGKTGVCIATSGPGATNLITGLADALLDSIPVVAITGQVSAPFIGTDAFQEVDVLGLSLACTKHSFLVQSLEELPRIMAEAFDVACSGRPGPVLVDIPKDIQLASGDLEPWFTTVENEVTFPHAEVEQARQMLAKAQKPMLYVGGGVGMAQAVPALREFLAATKMPATCTLKGLGAVEADYPYYLGMLGMHGTKAANFAVQECDLLIAVGARFDDRVTGKLNTFAPHASVIHMDIDPAEMNKLRQAHVALQGDLNALLPALQQPLNQYDWQQHCAQLRDEHSWRYDHPGDAIYAPLLLKQLSDRKPADCVVTTDVGQHQMWAAQHIAHTRPENFITSSGLGTMGFGLPAAVGAQVARPNDTVVCISGDGSFMMNVQELGTVKRKQLPLKIVLLDNQRLGMVRQWQQLFFQERYSETTLTDNPDFLMLASAFGIHGQHITRKDQVEAALDTMLNSDGPYLLHVSIDELENVWPLVPPGASNSEMLEKLS | rescued the cells growth | allowed cells to grow | could not rescue cell growth | able to grow | no growth | fastest growth rate
